Source: publication PMC2752310

Target: purified β protein (β clamp) (UniProt P0A988)
Test: SPR

Kd: 2.44 µM
B1: His-6-tagged TnsE, purified (natural protein)
chain: MVRLATFNDNVQVVHIGHLFRNSGHKEWRIFVWFNPMQERKWTRFTHLPLLSRAKVVNSTTKQINKADRVIEFEASDLQRAKIIDFPNLSSFASVRNKDGAQSSFIYEAETPYSKTRYHIPQLELARSLFLINSYFCRSCLSSTALQQEFDVQYEVERDHLEIRILPSSSFPKGALEQSAVVQLLVWLFSDQDVMDSYESIFRHYQQNREIKNGVESWCFSFDPPPMQGWKLHVKGRSSNEDKDYLVEEIVGLEINAMLPSTTAISHASFQEKEAGDGSTQHIAVSTESVVDDEHLQLDDEETANIDTDTRVIEAEPTWISFSRPSRIEKSRRARKSSQTILEKEEATTSENSNLVSTDEPHLGGVLAAADVGGKQDATNYNSIFANRFAAFDELLSILKTKFACRVLFEETLVLPKVGRSRLHLCKDGSPRVIKAVGVQRNGSEFVLLEVDASDGVKMLSTKVLSGVDSETWRNDFEKIRRGVVKSSLNWPNSLFDQLYGQDGHRGVNHPKGLGELQVSREDMEGWAERVVREQFTH
